Experimental data published in paper PMC9931771, “Surufatinib plus toripalimab in patients with advanced solid tumors: a single-arm, open-label, phase 1 trial” (Journal of Cancer Research and Clinical Oncology, 2022).

Key:
[1] = Phase 1 trial: pharmacokinetics of surufatinib and toripalimab (non-compartmental analysis); type: in vivo, human
Description: Blood samples were collected for PK evaluation at multiple time points on Cycle 1 Day 1, Cycle 2 Day 1, and Cycle 3 Day 1 for surufatinib and toripalimab, respectively.
DLT events were based on the DLT evaluable population, including patients who received at least 1 cycle of treatment and completed all safety assessments within the DLT assessment window or discontinued early due to DLT in the dose-escalation stage. All safety analyses, progression-free survival (PFS), and overall survival (OS) statistics were based on the safety population, including patients who received at least 1 dose of any study drug. All efficacy endpoints, excluding PFS and OS, were analyzed based on the efficacy evaluable population, including all patients who received at least 1 dose of any study drug and had tumor assessment at baseline and post drug administration prior to initiation of new anti-cancer therapies. The PK analysis was based on the PK population, which included all patients who received at least one dose of the study drug, had at least one PK sample collected and analyzed, and had no protocol deviation that might affect the PK data.
Two-sided 95% confidence interval (CI) of ORR and DCR were computed using the Exact (Clopper–Pearson) method. For time-to-event variables [PFS, OS, DoR (duration of response) and TTR (time to response)], median event time as well as the corresponding 95% CI were estimated using Kaplan–Meier method. All statistical analyses were performed using SAS 9.4 software. Adverse events (AEs) were graded by NCI CTCAE (Common Terminology Criteria for Adverse Events) v4.03, and coded using the Medical Dictionary for Regulatory Activities (MedDRA) v23.1. Treatment-related AEs (TRAEs) referred to AEs related to surufatinib or toripalimab, which were judged by the investigators. PK parameters were calculated by non-compartmental analysis using Phoenix WinNonlin v8.0.

[2] = tested on: NEN patients (Ki-67 ≥ 10%); set-up: method as in Lu et al. [2020]; settings: NEN patients (Ki-67 ≥ 10%) after failure of first line therapy; ref Lu et al. [2020]; cited from earlier work
[3] = surufatinib 200 mg + toripalimab 240 mg, C1D1, N 6
[4] = surufatinib 200 mg + toripalimab 240 mg, C2D1, N 4
[5] = surufatinib 200 mg + toripalimab 240 mg, C3D1, N 3
[6] = surufatinib 250 mg + toripalimab 240 mg, C1D1, N 12
[7] = surufatinib 250 mg + toripalimab 240 mg, C2D1, N 11
[8] = surufatinib 250 mg + toripalimab 240 mg, C3D1, N 10
[9] = surufatinib 300 mg + toripalimab 240 mg, C1D1, N 12
[10] = surufatinib 300 mg + toripalimab 240 mg, C2D1, N 10
[11] = surufatinib 300 mg + toripalimab 240 mg, C3D1, N 9

## toripalimab
[1]; Cycle 2 Day 1 compared to Cycle 1 Day 1, 240 mg Q3W
  Toripalimab accumulation ratio of AUC0-τ: 1.3–1.5
[1]; concomitant administration with surufatinib at different dose levels
  Toripalimab exposure (AUC0-τ) across surufatinib dose levels: similar
[1]; [3]
  Toripalimab AUC0-τ, geometric mean (CV%): 15925 (22.8) h×µg/mL
  Toripalimab CL, geometric mean (CV%): 11.1 (30.8) mL/h
  Toripalimab Cmax, geometric mean (CV%): 78.1 (15.2) µg/mL
  Toripalimab Tmax, median: 1.96 h
  Toripalimab t1/2, median: 231 h
[1]; [4]
  Toripalimab AUC0-τ, geometric mean (CV%): 21512 (26.4) h×µg/mL
  Toripalimab CL, geometric mean (CV%): 11.2 (24.3) mL/h
  Toripalimab Cmax, geometric mean (CV%): 96.2 (17.9) µg/mL
  Toripalimab Tmax, median: 2.63 h
  Toripalimab t1/2, median: 320 h
[1]; [5]
  Toripalimab AUC0-τ, geometric mean (CV%): 24626 (34.9) h×µg/mL
  Toripalimab CL, geometric mean (CV%): 9.75 (29.6) mL/h
  Toripalimab Cmax, geometric mean (CV%): 110 (29.0) µg/mL
  Toripalimab Tmax, median: 1.45 h
  Toripalimab t1/2, median: 390 h
[1]; [6]
  Toripalimab AUC0-τ, geometric mean (CV%): 14142 (25.6) h×µg/mL
  Toripalimab CL, geometric mean (CV%): 13.0 (32.9) mL/h
  Toripalimab Cmax, geometric mean (CV%): 71.4 (21.6) µg/mL
  Toripalimab Tmax, median: 1.85 h
  Toripalimab t1/2, median: 237 h
[1]; [7]
  Toripalimab AUC0-τ, geometric mean (CV%): 17176 (31.5) h×µg/mL
  Toripalimab CL, geometric mean (CV%): 14.0 (37.2) mL/h
  Toripalimab Cmax, geometric mean (CV%): 83.8 (24.5) µg/mL
  Toripalimab Tmax, median: 1.13 h
  Toripalimab t1/2, median: 259 h
[1]; [8]
  Toripalimab AUC0-τ, geometric mean (CV%): 20157 (39.5) h×µg/mL
  Toripalimab CL, geometric mean (CV%): 11.9 (52.0) mL/h
  Toripalimab Cmax, geometric mean (CV%): 97.4 (25.0) µg/mL
  Toripalimab Tmax, median: 1.87 h
  Toripalimab t1/2, median: 246 h
[1]; [9]
  Toripalimab AUC0-τ, geometric mean (CV%): 16458 (25.0) h×µg/mL
  Toripalimab CL, geometric mean (CV%): 11.0 (22.1) mL/h
  Toripalimab Cmax, geometric mean (CV%): 81.2 (24.5) µg/mL
  Toripalimab Tmax, median: 1.12 h
  Toripalimab t1/2, median: 234 h
[1]; [10]
  Toripalimab AUC0-τ, geometric mean (CV%): 20660 (33.7) h×µg/mL
  Toripalimab CL, geometric mean (CV%): 11.6 (27.6) mL/h
  Toripalimab Cmax, geometric mean (CV%): 98.1 (27.5) µg/mL
  Toripalimab Tmax, median: 1.26 h
  Toripalimab t1/2, median: 246 h
[1]; [11]
  Toripalimab AUC0-τ, geometric mean (CV%): 20063 (46.6) h×µg/mL
  Toripalimab CL, geometric mean (CV%): 12.0 (35.8) mL/h
  Toripalimab Cmax, geometric mean (CV%): 103 (33.2) µg/mL
  Toripalimab Tmax, median: 1.17 h
  Toripalimab t1/2, median: 241 h
[2]
  DCR: 35%
  ORR: 20%
